In paper PMC10213058:

Target: mouse pendrin (SLC26A4), full length (mouse)
Experiment: cryo-EM structure; single-particle cryo-EM of purified pendrin in 0.02% GDN, about 1.7 mg/mL, pH 8.0-8.3; samples in 150 mM NaCl (pendrin-Cl), NaHCO3 (pendrin-HCO3), Cl/HCO3, Cl/I and HCO3/I; symmetric and asymmetric homodimers

stoichiometry N: 2
Substance: mouse pendrin (SLC26A4), full length (natural protein)
